Source: article PMC2646144, “Crucial Role of the CB3-Region of Collagen IV in PARF-Induced Acute Rheumatic Fever” (PLoS ONE, 2009)

Biological target: T1, GST-M3-protein (recombinant streptococcal M-protein type 3) (S. pyogenes)
T1 construct: M-protein type 3 (M3-protein) of Streptococcus pyogenes; emm3 amplified from chromosomal DNA of the M3 strain with primers M3-1 (BamHI) and M3-3 (SalI); The GST tag is named on the protein for electron microscopy and the pull-down; also called M3-GST; GST-tagged M-protein type M3; source: E. coli, pGEX6P-1, purified under native conditions; not shown: GST, N-terminal, kept
Assay: SPR; BIAcore 2000, CIV or CB3 immobilised on CM5 chip by amine coupling, M3-protein injected at 6.25-50 µg/ml, 10 mM HEPES, 100 mM NaCl, pH 7.4; apparent dissociation constants
Conditions: both partners purified

B1: Cyanogen bromide fragment 3 (CB3) of collagen type IV (domain or fragment)
chain 1: PGVGEKGEPGKPGPRGKPGKDGDKGEKGSPGFPGEPGYPGLIGRQGPQGEKGEAGPPGPPGIVIGTGPLGEKGERGYPGTPGPRGEPGPKGFPGLPGQPGPPGLPVPGQAGAPGFPGERGEKGDRGFPGTSLPGPSGRDGLPGPPGSPGPPGQPGYTNGIVECQPGPPGDQGPPGIPGQPGFIGEIGEKGQKGESCLICDIDGYRGPPGPQGPPGEIGFPGQPGAKGDRGLPGRDGVAGVPGPQGTPGLIGQPGAKGEPGEFYFDLRLKGDKGDPGFPGQPGM
chain 2: GFPGLRGYPGLSGEKGSPGQKGSRGLDGYQGPDGPRGPKGEAGDPGPPGLPAYSPHPSLAKGARGDPGFPGAQGEPGSQGEPGDPGLPGPPGLSIGDGDQRRGLPGEM
chain 3: GPKGFIGDPGIPALYGGPPGPDGKRGPPGPPGLPGPPGPDGFLFGLKGAKGRAGFPGLPGSPGARGPKGWKGDAGECRCTEGDEAIKGLPGLPGPKGFAGINGEPGRKGDRGDPGQHGLPGFPGLKGVPGNIGAPGPKGAKGDSRTITTKGERGQPGVPGVPGM
modifications: 125I (chloramine T method) in the pull-down, bacterial binding and overlay assays | 125I (chloramine T method) in the pull-down, bacterial binding and overlay assays
Q: For B1, which Kd is on record?
A: 60 nM
